Laboratory results published in PMC9910466 (Proceedings of the National Academy of Sciences of the …, 2022).

B1: Ufd1 (S. cerevisiae) (natural protein)
chain: MFSGFSSFGGGNGFVNMPQTFEEFFRCYPIAMMNDRIRKDDANFGGKIFLPPSALSKLSMLNIRYPMLFKLTANETGRVTHGGVLEFIAEEGRVYLPQWMMETLGIQPGSLLQISSTDVPLGQFVKLEPQSVDFLDISDPKAVLENVLRNFSTLTVDDVIEISYNGKTFKIKILEVKPESSSKSICVIETDLVTDFAPPVGYVEPDYKALKAQQDKEKKNSFGKGQVLDPSVLGQGSMSTRIDYAGIANSSRNKLSKFVGQGQNISGKAPKAEPKQDIKDMKITFDGEPAKLDLPEGQLFFGFPMVLPKEDEESAAGSKSSEQNFQGQGISLRKSNKRKTKSDHDSSKSKAPKSPEVIEID
notes: Ufd1, S. cerevisiae, codon-optimized gene; residues 228 to 256 and 281 to 311 resolved in the maps; source: E. coli BL21-CodonPlus (DE3)-RIL, purified with Npl4 (Ni-NTA, TEV protease, SEC); not shown: His tag (from the Ni-NTA purification)

Tests used:
[1] = target: Ufd1^ΔSIM/Npl4 dimer, biotinylated (S. cerevisiae) (UniProt P53044); experiment: BLI; biotinylated Ufd1/Npl4 dimer (WT Ufd1 or Ufd1^ΔSIM) immobilised on streptavidin biosensors, serial dilution of substrate; 30 °C; PBS, 0.02% Tween-20, 0.1% BSA, 0.1 mM TCEP; 2:1 heterogeneous ligand fit
[2] = target: T1, Npl4 (S. cerevisiae) (S. cerevisiae, UniProt P33755 1-580); experiment: cryo-EM structure; 2 μM Ufd1/Npl4, 2 μM Cdc48, 2.5 μM 1S1U^H-mEOS, on ice with 1 mM ATP in 20 mM HEPES pH 8.0, 150 mM NaCl, 0.1 mM TCEP, 5 mM MgCl2; single-particle; conditions: both partners purified
T1 construct: Npl4, S. cerevisiae, codon-optimized gene; source: E. coli BL21-CodonPlus (DE3)-RIL, purified with Ufd1 (Ni-NTA, TEV protease, SEC); not shown: His tag (from the Ni-NTA purification)
T1 sequence: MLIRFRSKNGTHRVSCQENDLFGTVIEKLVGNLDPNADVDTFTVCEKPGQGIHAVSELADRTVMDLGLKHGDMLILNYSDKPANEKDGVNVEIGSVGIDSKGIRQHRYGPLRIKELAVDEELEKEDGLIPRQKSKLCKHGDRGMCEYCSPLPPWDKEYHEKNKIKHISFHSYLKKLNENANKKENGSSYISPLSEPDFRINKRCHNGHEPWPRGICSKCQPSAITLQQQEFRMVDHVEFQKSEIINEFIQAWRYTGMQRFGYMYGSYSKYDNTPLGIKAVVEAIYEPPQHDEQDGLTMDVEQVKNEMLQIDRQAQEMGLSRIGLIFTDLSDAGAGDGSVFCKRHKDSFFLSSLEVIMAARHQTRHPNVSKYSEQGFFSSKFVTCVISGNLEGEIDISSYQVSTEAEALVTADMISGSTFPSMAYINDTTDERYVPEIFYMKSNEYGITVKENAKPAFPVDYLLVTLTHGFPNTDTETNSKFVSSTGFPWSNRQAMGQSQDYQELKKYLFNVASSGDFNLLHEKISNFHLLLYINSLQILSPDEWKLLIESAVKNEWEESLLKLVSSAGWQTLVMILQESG

| Molecule | fold binding defect against WT Ufd1/Npl4 [1] | binding result [2] |
| --- | --- | --- |
| 1S1U-mEOS substrate without polyubiquitin chain (one SUMO and one ubiquitin fused end to end with the N-terminus of mEOS) (from UniProt Q12306 1-101; P0CG63 1-76) | 100 fold | – |
| B1 | – | binds |
